Reference: the supplement of paper PMC10567573

B1: PLD5 (parent)
chain: WIVDKQHVYIGSAGLDWQSLGQMK

Variants of: B1
Assay: protein stability index of a GFP-peptide fusion (GPS, HEK-293T) (PSI 1-6); higher = more stable
Conditions: c terminus: a fixed tail appended
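Note: lentivirally expressed fusions sorted by FACS into six bins by GFP to DsRed ratio, PSI derived from sequencing read proportions per bin multiplied by bin number.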

Variant	protein stability index
WIVDKQHVYIGSHGLDWQSLGQMK [A13H]	1.45
WIVDKQHVYIGSNGLDWQSLGQMK [A13N]	2.11
WIVDKQHVYIGSLGLDWQSLGQMK [A13L]	2.44
WIVDKQHVYIGSKGLDWQSLGQMK [A13K]	1.96
WIVDKQHVYIGSSGLDWQSLGQMK [A13S]	2.14
WIVDKQHVYIGSRGLDWQSLGQMK [A13R]	3.3
WIVDKQHVYIGSQGLDWQSLGQMK [A13Q]	1.95
WIVDKQHVYIGSEGLDWQSLGQMK [A13E]	1.72
WIVDKQHVYIGSGGLDWQSLGQMK [A13G]	2.05
WIVDKQHVYIGSAGLDWQSLGQMD [K24D]	2.02
WIVDKQHVYIGSAGLDWQSLGQMA [K24A]	2.37
WIVDKQHVYIGSAGLDWQSLGQMH [K24H]	2.79
WIVDKQHVYIGSAGLDWQSLGQMF [K24F]	2.05
WIVDKQHVYIGSAGLDWQSLGQMC [K24C]	3.61
WIVDKQHRYIGSAGLDWQSLGQMK [V8R]	4.04
WIVDKQHSYIGSAGLDWQSLGQMK [V8S]	1.69
WIVDKQHHYIGSAGLDWQSLGQMK [V8H]	1.54
WIVDKQHFYIGSAGLDWQSLGQMK [V8F]	1.92
WIVDKQHDYIGSAGLDWQSLGQMK [V8D]	1.5
WIVDKQHYYIGSAGLDWQSLGQMK [V8Y]	1.25
WIVDKQHCYIGSAGLDWQSLGQMK [V8C]	1.58
WIVDKQHTYIGSAGLDWQSLGQMK [V8T]	1.81
WIVDKQHQYIGSAGLDWQSLGQMK [V8Q]	2.11
WIVDKQHWYIGSAGLDWQSLGQMK [V8W]	2.43

Variant	protein stability index
WIVDKQHVYIGSAGLDWQSLCQMK [G21C]	1.91
WIVDKQHVYIGSAGLDWQSLAQMK [G21A]	2.17
WIVDKQHVYIGSAGLDWQSLLQMK [G21L]	2.88
WIVDKQHVYIGSAGLDWQSLHQMK [G21H]	2.52
WIVDKQHVYIGSAGLDWQSLQQMK [G21Q]	1.75
WIVDKQHVYIGSAGLDWQSLPQMK [G21P]	1.67
WIVDKQHVYIGSAGLDWQSLSQMK [G21S]	1.52
WIVDKQHVYIGSAGLDWQSLWQMK [G21W]	1.68
WIVDKQHVYIGSAGLDWQSLEQMK [G21E]	1.25
WIVDKQHVYIGSAGLDWYSLGQMK [Q18Y]	2.65
WIVDKQHVYIGSAGLDWLSLGQMK [Q18L]	2.15
WIVDKQHVYIGSAGLDWESLGQMK [Q18E]	1.6
WIVDKQHVYIGSAGLDWRSLGQMK [Q18R]	1.47
WIVDKQHVYIGSAGLDWVSLGQMK [Q18V]	2.73
WIVDKQHVYIGSAGLDWQYLGQMK [S19Y]	1.91
WIVDKQHVYIGSAGLDWQLLGQMK [S19L]	3.25
WIVDKQHVYIGSAGLDWQVLGQMK [S19V]	1.69
WIVDKQHVYIGSAGLDWQNLGQMK [S19N]	1.45
WIVDKQHVYISSAGLDWQSLGQMK [G11S]	2.22
WIVDKQHVYIESAGLDWQSLGQMK [G11E]	2.82
WIVDKQHVYIFSAGLDWQSLGQMK [G11F]	2.11
WIVDKQHVYIASAGLDWQSLGQMK [G11A]	1.69
WIVDKQHVYIWSAGLDWQSLGQMK [G11W]	2.27
WIVDKQHVYIMSAGLDWQSLGQMK [G11M]	2.25

Variant	protein stability index
WIVDKQHVYILSAGLDWQSLGQMK [G11L]	2.88
WIVDKQHVYIQSAGLDWQSLGQMK [G11Q]	1.53
WIVDKQHVYIYSAGLDWQSLGQMK [G11Y]	3.22
WIVDKQHVYIGSAGLKWQSLGQMK [D16K]	1.68
WIVDKQHVYIGSAGLIWQSLGQMK [D16I]	1.94
WIVDKQHVYIGSAGLQWQSLGQMK [D16Q]	1.16
WIVDKQHVYIGSAGLWWQSLGQMK [D16W]	3.03
WIVDKQHVYIGSAGLEWQSLGQMK [D16E]	2.32
WIVDKQHVYIGSAGLSWQSLGQMK [D16S]	2.26
WIVDKQHVYIGSAGLLWQSLGQMK [D16L]	2.44
WIVDKQHVYIGWAGLDWQSLGQMK [S12W]	1.92
WIVDKQHVYIGVAGLDWQSLGQMK [S12V]	2.35
WIVDKQHVYIGMAGLDWQSLGQMK [S12M]	1.31
WIVDKQHVYIGLAGLDWQSLGQMK [S12L]	2.45
WIVDKQHVYIGTAGLDWQSLGQMK [S12T]	1.18
WPVDKQHVYIGSAGLDWQSLGQMK [I2P]	2.65
WHVDKQHVYIGSAGLDWQSLGQMK [I2H]	1.88
WEVDKQHVYIGSAGLDWQSLGQMK [I2E]	2.18
WQVDKQHVYIGSAGLDWQSLGQMK [I2Q]	2.48
WMVDKQHVYIGSAGLDWQSLGQMK [I2M]	1.5
WNVDKQHVYIGSAGLDWQSLGQMK [I2N]	1.61
WDVDKQHVYIGSAGLDWQSLGQMK [I2D]	2.16
WIVDKQHVYIGSANLDWQSLGQMK [G14N]	2.15
WIVDKQHVYIGSAHLDWQSLGQMK [G14H]	2.29

Variant	protein stability index
WIVDKQHVYIGSAALDWQSLGQMK [G14A]	1.51
WIVDKQHVYIGSAFLDWQSLGQMK [G14F]	2.02
WIVDKQHVYIGSAQLDWQSLGQMK [G14Q]	1.64
WIVDKQHVYIGSAVLDWQSLGQMK [G14V]	2.6
WIVDKQHVYIGSASLDWQSLGQMK [G14S]	2.16
WIVDCQHVYIGSAGLDWQSLGQMK [K5C]	2.29
WIVDDQHVYIGSAGLDWQSLGQMK [K5D]	1.42
WIVDEQHVYIGSAGLDWQSLGQMK [K5E]	2.42
WIVDWQHVYIGSAGLDWQSLGQMK [K5W]	2.34
WIVDQQHVYIGSAGLDWQSLGQMK [K5Q]	1.74
WIVDRQHVYIGSAGLDWQSLGQMK [K5R]	1.94
WIVDKQHVYIGSAGQDWQSLGQMK [L15Q]	1.47
WIVDKQHVYIGSAGCDWQSLGQMK [L15C]	1.47
WIVDKQHVYIGSAGDDWQSLGQMK [L15D]	1.92
WIVDKQHVYIGSAGEDWQSLGQMK [L15E]	2.13
MIVDKQHVYIGSAGLDWQSLGQMK [W1M]	1.43
CIVDKQHVYIGSAGLDWQSLGQMK [W1C]	1.59
QIVDKQHVYIGSAGLDWQSLGQMK [W1Q]	2.5
DIVDKQHVYIGSAGLDWQSLGQMK [W1D]	2.15
HIVDKQHVYIGSAGLDWQSLGQMK [W1H]	2.12
SIVDKQHVYIGSAGLDWQSLGQMK [W1S]	2.2
PIVDKQHVYIGSAGLDWQSLGQMK [W1P]	2.32
